Measurements from FireProtDB (doi:10.1021/bi00150a028).

B1: Lysozyme C, P61626 (parent)
chain: MKALIVLGLVLLSVTVQGKVFERCELARTLKRLGMDGYRGISLANWMCLAKWESGYNTRATNYNAGDRSTDYGIFQINSRYWCNDGKTPGAVNACHLSCSALLQDNIADAVACAKRVVRDPQGIRAWVAWRNRCQNRDVRQYVQGCGV

Variants of: B1
Details: Homo sapiens, pH 3, Thermal, DSC, glycine-HCl 0.05 M, reversible: yes, structure 1LZ1, whole UniProt chain shown; for ddG of mutation (higher = less stable) / unfolding enthalpy (calorimetric) / unfolding free energy: 57 °C

| Variant | ddG of mutation (higher = less stable) [kcal/mol] | unfolding enthalpy (calorimetric) [kcal/mol] | unfolding free energy [kcal/mol] | Tm [°C] | change of melting temperature, mutant - wild type (higher = more stable) [°C] |
| --- | --- | --- | --- | --- | --- |
| MKALIVLGLVLLSVTVQGKVFERCELARTLKRLGMDGYRGISLANWMCLAKWESGYNTRATNYNAGDRSTDYGIFQINSRYWCNDGKTPGAVNAAHLSCSALLQDNIADAVAAAKRVVRDPQGIRAWVAWRNRCQNRDVRQYVQGCGV [C95A C113A] | 4.6 | 90.8 | 0 | 56.9 | -14.5 |
| MKALIVLGLVLLSVTVQGKVFERCELARTLKRLGMDGYRGISLANWMCLAKWESGYNTRATNYNAGDRSTDYGIFQINSRYWCNDGKTPGAVNAAHLSCSALLQDNIADAVACAKRVVRDPQGIRAWVAWRNRCQNRDVRQYVQGCGV [C95A] | 4.6 | 94.8 | 0 |  |  |
